Source: the supplement of paper PMC9170038

Test system: K4 kissing-loop RNA reporter
Test: apparent KD of K4 kissing-loop reporter; higher = weaker reporter binding
Conditions: Eterna round: R107
Method: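 RNA-MaP round R107: designed RNA switches with theophylline, tryptophan, arginine or FMN aptamers are transcribed on-chip within common flanks. They are titrated with a labelled K4 kissing-loop RNA reporter in RNA-MaP buffer (100 mM Tris pH 7.5, 80 mM KCl, 4 mM MgCl2), without ligand or with the indicated ligand. Median apparent KD per design.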

[1] = input ligand: theophylline 20 uM
[2] = input ligand: tryptophan 2.4 mM
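Note: bound reporter read as fluorescence of individual clusters on recovered sequencing chips by microscopy, with normalized cluster intensities fitted with a binding model.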

Sequence	apparent KD of K4 kissing-loop reporter (input ligand: FMN 200 uM) [nM]	apparent KD of K4 kissing-loop reporter (input ligand: arginine 13.2 mM) [nM]	apparent KD of K4 kissing-loop reporter (input ligand: none) [nM]	apparent KD of K4 kissing-loop reporter [1] [nM]	apparent KD of K4 kissing-loop reporter [2] [nM]
CGUUUAUAGGAGGAUACCAGUACGGAUAAAGUACGUUAAUAGUAGAGUGAUGUUCUAAAGUACCCUUGGCAGCUUAGAGUGAGUG [ExTheophylB.N]	100	104	106	121	73.6
UUAAGGGUCCGAGGAUAUCUCCCAGUGAUGUUGGGCGAUACGGCCCUUAAGACUAAUGGUUGAAGGAGAGAAGGCGGCUCCCGAU [Edmaisle]	146	120	128	136	112
ACGAUCAUGUCGGCCGCCACUGAGAGUAGUGAUGUUACUCUUUUCCUUUAGUUAUUAUAUUUUAUCAGGACCGGGACAUGUUCGU [JR_ExcTryptoB_Sub022]	88.3	66.7	72.3	69.6	77.9
GUCUGCGUCUCGGCCGCCACUCACUAGUGAUGUUAGUAAGGAGCGACUAGCGCAGUCCUGAAGAUGAGGACCGGGAGACGCAGGA [Exclusion Tryptophan B GF5]	141	110	119	91	358
AAGUGUGUGGCGGCCGCCACUAGAAUCCAGUGAUGUUGGAGUUAUCAUAUAAAUGAUAAUCAACAUAGGACCGGGCCAUAUAGAA [Same State - Tryptophan B (Freestyle 7)]	639	523	550	745	783
AUAAUAAAGACGGCCGCCACUGAGAGUAGUGAUGUUACUCUUUUCCUUUAGAAAUAAUAUUUUAUCAGGACCGGGUUUUUUGAAU [JR_Nu_ExcTryptoB_Sub026]	95.3	81.1	84.8	79.6	92
AACAAGGGAUGUCAGUGAUGUUGUACGUCGCGAGGACCGGUACGGCCGCCACUCGUAAUACACAGAUGAGGGUUCUUUCUCUGAU [theeternabot_sameState_KL_Trp_A_49]	305	179	268	265	228
UUCCUCAUGGUAGUGAUGUUGCCGCCCGAUACCAGUCGACGUAUUGACCCUUGGCAGCGGAUCAAGUCCGAUUAAUUUUUUGGUC [theeternabot_sameState_KL_Theo_A_5]	216	190	217	320	196
CUGCAAAAGUCGGCCGCCACUCCGGGCCCUAUAAAUGGGCGCAGUGAUGUUGCGGCUAGGCCUCUGAGGACCGGGACUUUGUAAC [Aratan]	190	64.7	87	131	218
CUUGGUCUACGAAGGAGCGCCGUGCAGUGAUGUUGCAGUCAGAUCGAGUGAUGUUUCGGGCGGCAGGUAGGUCGCGUGGCCCUUU [Excusion Arginine B GF 26]	633	455	613	587	579
UGGAUUAGGACGGCCGCCACUACGCUGGCAUGAGUGAUGUUCUAAGGCUUGUCAAAGAUCCAGAGUAGGACCGGGUCCAAUGACU [theeternabot_exclusion_KL_Trp_B_38]	293	225	275	261	271
CAUAAAAGGUGGAAGACGAAUCGGUGUCGCCGAGGACCGGUACGGCCGCCACUCGGUCAUCAAAUCCUUCCCGAGUGAUGUUCGA [theeternabot_sameState_KL_Trp_A_5]	382	439	501	444	258
AUUCUGUUUUUGAUGUUUAUUGUAUAAUGGCAGGAUAUCGUAGAAGCGAGAAGGGCUUUUAUGCGUUAUGAGUGAUGUUUGUAGG [eyeefvmullin]	373	260	284	319	256
GCUAGCAUGGCAGGAUAUAGCAAUAGGAGUGAUGUUCCUUGGUAGGUGAGUGAUGUUCACUACCAACUAGAAGGGCCAUGCUAGC	139	111	126	108	129
UGAUACCAGACUGAUACCAGCCACAGAGUCAAAGACUCUGAAAGGGAAACCAGUGAUGUUGGCCCUUGGCAGCAGUCUGGUAUCU [TheoBX 23 #SwitchBubble #StaticStem]	502	412	493	382	431
AUUUGUUUAUGUGAUACCAGACUUUGCAGUGAUGUUGCUUUUAUUUUUGAAUUUUAAAUAGUCCCUUGGCAGCACUAUGUAUUUA [JR_SSTheophyB_Sub009]	65.5	132	82.8	137	60.6

Sequence	apparent KD of K4 kissing-loop reporter (input ligand: FMN 200 uM) [nM]	apparent KD of K4 kissing-loop reporter (input ligand: arginine 13.2 mM) [nM]	apparent KD of K4 kissing-loop reporter (input ligand: none) [nM]	apparent KD of K4 kissing-loop reporter [1] [nM]	apparent KD of K4 kissing-loop reporter [2] [nM]
CGAGUGAUGUUCGUUCGUUUAUUUCGGUGACAGGAUAUGCGGAAACGCAGAAGGGUCACCUUUGAGUUACCGGAAUUAACGUUAU [Ex FMN A 29]	564	453	623	558	455
UGUAUGUGAUUUGAUACCAGACCAGCUGGUGGUACCUGAGUGAUGUUCGGGAUGGUUUGGGUCCCUUGGCAGCAAAUCGCAUACU [KL-SSTheoB20]	251	144	164	148	170
AGCGAGUGAUGUUCGCUGAUCAUGAGAAGUUAGGAUAUAUACUUGCAUAGAAGGAACUAUUUCAUGACAUUAGAGGCAGUAGUUC [FMN A SS t7]	159	160	158	152	125
CCAUCGCUAUUCGAUACCAGCUACUUAGUGAUGUUAAGUUAAAAUAAAUUGUAGAUUAAAAGCCCUUGGCAGCGAAUAGUGAUGG [Theophylline B K4 19]	149	134	150	103	136
CGUUUAUAGCAGGAUACCAGUACCCAUUAUGUACGUUUAUAGUAGAGUGAUGUUCUAAAGUACCCUUGGCAGCUUCCCGUGACCC [ExTheophylB.Z]	113	171	131	179	85.4
AAUGAUGAUUGACACAUUUACUAAAAGGAAGGAGCGGCGAAGUAGCCAGGUAGGUCGCCUUAUAGCAGUGAUGUUGCUAUUUGUU [JR_Nu_ExcArginiA_Sub027]	59	106	83.1	105	76.2
AGUGGACGUGUUCGGAGUGAUGUUCCGGAUACCAGACACGAAAGUGUCCCUUGGCAGCCGGAGUGAUGUUCCGGCGUUCACUAAA [Omei KL Theo A Exc B v2]	646	311	538	533	439
GUACAUUGGAAACAAGAACAAAUAACCGAAGGAGCGCGUGAAAACGCAGGUAGGUCGCGGAAGCAGUGAUGUUGCAUUAGAGAUC [Same State Arginine A GF 16]	79.2	103	61.1	106	60.3
CGUUUAUAGCAGGAUACCAGUACCCAUAAAGUACGUUAAUAGUAGAGUGAUGUUCUAAAGUACCCUUGGCAGCUUCCCGUGAGUG [ExTheophylB.T]	88.9	129	103	134	67.8
UGACAUUGCUCAGAUACCAGACCUGAGGAUCACCCGGGUGCCAAAACGUACUAAAUAAAGGUCCCUUGGCAGCUGAGCAAUGUCU [TheoBX 13]	56.9	43.7	65.5	49.5	89.5
GUAAUCUUGCUCGAGUGAUGUUCGAGCGAAGGAGCGCGAGAAAUCGCAGGUAGGUCGCGCUCGAAAUAUGAGCGAACAAUUAUUA [Arg A Ex t2b]	222	197	220	219	230
UUGAGCCUGACGAAAGUCAGGCUCUGCGAGCGAGGACCGGUACGGCCGCCACUCGGUGCAGUGAUGUUGCAUGGCCGCAAGGCCG [#2 Exclusion - Tryptophan A Attempt #14 (HarryS)]	309	300	289	312	456
AAGUGUGUGGCGGCCGCCACUAGAAUCCAGUGAUGUUGGAGUAAUCAAAUAAAUAAUAAUAAACAUAGGACCGGGCCAUAUAGAA [Same State - Tryptophan B (Freestyle 2)]	154	138	147	134	129
GAUUUAGAGGCGGCCGCCACUAGUGAUGUUAGUGAUGUUUGAUAGGGAAUAUAUCAGCGAGUAGAUAGGACCGGGCCAGAUGGAG [gtggbmullin]	248	183	203	189	167
GGUGCUGUCUGUGCCGCCCUCCUCGUCCCUCGAGGACCGGUACGGCCGCCACUCGAGUGAUGUUCGGGUAGCCCUCCCUGCCAGC [BDazzled - #21 Exc. Tryptophan A]	493	402	548	438	492
AGCUAGUGAAACUAGUUUAAACUAGGUGAAGGAGCGAUCGAAAGAUCAGGUAGGUCGCACCUAACUGAGUGAUGUUCAGGAAAUA [KL-SSArg-A4]	67.1	54.3	70.7	66.7	61.3
